Laboratory results published in the RNAGym collection of RNA variant scans (doi:10.1073/pnas.2313332121).

B1: TPR t1 (parent)
chain: GACCAAUCUGCCCUCAGAGCUCGAGAACAUCUUCGGAUGCAGAGGAGGCAGGCUUCGGUGGCGCGAUAGCGCCAACGUCCUCAACCUCCAAUGCAUCCCACCACAUGAUGAUGCCUGAAGAGCCUUGGUUUUUUG

Variants of: B1
Assay: polymerase ribozyme fitness, log enrichment relative to wild type (log ratio); higher = more active; in vitro selection for triplet polymerase activity
Outline: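 Genotype fitness is the logarithm of its enrichment divided by wild-type enrichment, using inverse-variance-weighted averages of replicates. That logarithm is base 2. Enrichment was measured by Illumina sequencing of input and output libraries from one triplicate in vitro selection round, with frozen incubation at −7 °C, on PCR-built, transcribed mutant libraries of each subunit of a heterodimeric triplet polymerase ribozyme, retaining genotypes with ≥10 input reads and ≥1 read per output.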

Variant | polymerase ribozyme fitness (log ratio)
U21A U59G U81G C82G C115U | -4.27
C49G C70G | -4.79
C4G C22U G23A A66U A83G C97G C99U U106A G113U C124A | -7.47
U14G G45C G110U | -3.81
G51U C94G | -4.19
G60A C89A A105U C114U | -6.37
G71A G120C G127A U131G | 1.2
U9G U21A | -0.191
C12A G36C | -1.69
A50C G57U G113U | -4.25
U54G C56A U132C | -1.66
C12A A26U A41C C82A A95G C101A G120A G127A | -5.86
U7C C12A C13A G17A A27C C115U | -5.21
A16G A84U A90C | -2.9
C40A U131A | -1.11
G25C A26G C28A C72A G110A | -5.56
C73G C115A | -1.04
A26U C53U C72U U116G | -6.07
G69U C70U C80U G113C A119G | -3.06
U112G U130A | 0.613
G10U C73G U92A C101U C104U | -4.21
G44A G77C U78A G93A | -1.9
U9A U32A A37U A46C C56A A111G | -4.29
C101A C114U | -2.99

Variant | polymerase ribozyme fitness (log ratio)
G36A A121U U133A | 1.79
C12A G57U C72U | -0.582
C12A G57A G69C U106C | -2.99
G39U G63A G93U | -3.17
C8A G36U G69A C88A C115U U131G | -6.31
G69C U78G C102U G110A | -6.81
G61A A91C C123U | 0.543
G48A U87A | -0.877
U112C C124G G128A | -0.155
C101A A105C A118U | -4.79
A46U C64U U81G | -6.35
C3U A29U | -1.77
C82G A108G A111G A121C | -5.85
C40U C62G G127C | -3.27
C11G C40A G48U C70U | -1.6
A26U G44A G48U C82U G122A | -6.34
U59C U130C | -0.123
C11A G36U G48C | -3.57
U7G C15A U38C C40G A41U G48U G69A C89A U96G C98U A111G | -7.66
C56A A119G | 0.651
C11A A37G G60U C101A U131G | -2.57
G35C G63C | -5.87
C64U C115U | -0.234
C13G U87C A121C | 0.326

Variant | polymerase ribozyme fitness (log ratio)
G63U G93A C124A | 0.423
C20A A91G U109G | -4.02
C73G U87A G122A | -4.5
C20G G36A A121C | -3.32
C11G U96G | -0.325
C11A U78A G120A | 1.31
C76U A90G C115A | -0.0334
C8A C22U C53G G61A U106A A118G | -4.47
G23C G44U C88U A121G | -6.39
C56G C98G | -4.96
G61A G127A | -2.37
C12A A46U C114U | -3.89
U9A G71U C94A C123G | 0.355
C72U C123G | 0.829
A16C C22U G60C G93C A118U A121G | -6.04
C11U G39U C79U G93U | -2.7
A43G C72G U132A G135C | -2.2
C56U U106A G120A | 0.351
G17U A74U | -3.16
A26U A75G A95G | -2.74
G17A U21A G44C A46C C73G | -5.53
G51U G93A | -4.12
U14G G48U C94A C101U G120C | -2.13
C8U A50G C72G | -0.53

Variant | polymerase ribozyme fitness (log ratio)
A26C G69C | -7.17
A74C A90C C101G | -3.22
G61C C114G | -4.27
A29G U38G C73G C82U A100G C115G | -7.25
G45U C64U C79G C114U | -5.29
G25C C70G G107A A111U U129G | -7.14
G36U G52C U78G A95G | -2.15
C89U U92C U112G G127U U130A | -3.09
C40G G44U C85U | -5.09
C34A C79U | -2.71
G60A U106G | -0.897
G10U C62U C72A C88U C89G A121G U132C | -1.87
C12U A26C G45C G61C A75C C82A | -6.28
C15U C76A | -1.94
U59A A90G C123U | 1.4
U32A U33C A121U G135A | -4.41
C53A C124U U129G | -0.384
C40U C86G | -1.6
A26G G48A G63U C101G | -4.73
A29G G63A C88A | -2.37
G52C C70U U106A | -1.07
U9G G71U A84G C89G U112G | -7.39
U7G G52A C104A C114G U133G | -3.61
U67C C94A C123U | -6.04

Variant | polymerase ribozyme fitness (log ratio)
U21C C56A C70U C82A | -2.18
C82G U112G | -2.98
G45C U96A G113C | -3.21
A18C G39A | -3.32
C4G G61C | -2.88
G44A C104U | -0.855
C15A G127A | -3.63
A6G C12U A43C U54C C56U A66G C72U C73A | -6.56
G45A C114A | -1.97
C4A C72U G117C U131A | -5.79
C40U C64U | -0.45
G10A C86A | -0.0637
A2G A50C A75G G113U | -3.77
G45U G57U C73G U78A C94A A119G | -0.559
C8U C13U A68G U129G | -3.57
G52A G117U | -0.533
U32C A46U G63C C104A G117C | -6.2
C31A U32C C123G | -3.17
G57C U116C | -0.186
U9C C40G G69A C101U | -2.3
G42A U96C | -2.41
C4G A26G U78C C99U C114G U132C | -5.4
G10U G77A G93U U129C | -2.07
G17C A26G A37U C53G G57A A91G G93U A111U U129G | -6.27

Variant | polymerase ribozyme fitness (log ratio)
G17U C34A | -3.65
C31U U59G C73U | -5.82
C82A U112A C114G | -0.66
C8U C64U | 0.265
C40A U87G | -1.04
C72A A83G | -0.951
C82U U87A | -0.441
C86A G93U C115U | -4.53
A43G G113U | -2.72
A18G U67A C102U C123A | -5.64
G52U U55A A83G U106A C115U | -5.1
U14C G42C U92G | -4.23
A5C C56U G69U G120A G135C | -1.06
C3G | -1.58
A24C G120A | -4.02
C53U C72A U130A | -0.183
G44C C53G G61A | -0.806
G42U A43G C123A | -1.31
A68C C124A | -5.4
G69C C97G C101A G107A U112G U130G | -6.6
C11U G71A | -1.53
U55C A121G | 1.84
G71A C114U | -2.27
G36A A121C | 0.979

Variant | polymerase ribozyme fitness (log ratio)
C20A A37U A83C | -3.38
C11U G42C | -2.01
G25C C31G C34U A43C U112C | -6.28
A18U U54C A83G U109A | -6.59
U7A A46G C70U A111C G113A | -3.8
C123G G127A | -0.249
C11G G63U C88A | -1.57
A41C C70U G71C G117U C123A G128A | -6.8
A68G | -2.44
C79U G93U | -1.77
C11U C56A C123U | 1.37
C12U C98G | -4.85
A111G G120A G122A | -2.07
U78A C124U U125A U133C | 1.84
C12G G71C A105G U125A | -4.36
A46U G52A U109C C124G | -7.25
C99U C101A | -4.62
C12A C15U G69A G93U U109G | -6.39
C15U A37G C53U U116C | -2.52
C4U C101G | -2.06
C70U C114U | -2.88
C72G A83G | -0.0856
G63U A103G | -5.82
